For experiment [1], the target named is CypA-CA complex formed beforehand (human | HIV-1) (UniProt P62937). In words: MST.
For experiment [2], the target named is Recombinant human CypA (human) (UniProt P62937). As to the kind of experiment: MST.
Experiment [3] deals with Tat-CypA complex formed beforehand (HIV-1 (BH10 isolate) | human) (UniProt P69697). In words: MST.
Experiment [4] has the same target. As to the kind of experiment: SPR. In general terms: In SPR one partner is held on a chip, and binding of the other changes the refractive index at the surface.
The target in experiment [5] is Recombinant Tat (86 residues, BH10 isolate) (HIV-1 (BH10 isolate)) (UniProt P69697). As to the kind of experiment: SPR.

One may read the Kd as the equilibrium constant for the complex coming apart.

In experiment [1], “Recombinant Tat (86 residues, BH10 isolate) (from UniProt P69697 1-86) (natural protein)” registered a dissociation constant Kd of 55 nM.
Regarding “Recombinant HIV-1 capsid protein (CA) (natural protein)”, the dissociation constant (Kd) in experiment [2] was 8.3 µM; in experiment [3], 5.5 µM; in experiment [4], 110 nM.
In the case of “CypA-CA complex formed beforehand (from UniProt P62937 1-165)”, in experiment [5], the equilibrium dissociation constant (Kd) amounted to 95 nM.

The values above are taken from publication doi:10.1101/2022.08.07.503104.
